Consider 3 substances from publication PMC5735978.

The target of test [1] is 6xHis-14-3-3γ wild-type (human) (UniProt P61981). Kind of test: native gel or EMSA; blue native gel (4-16%) of His-14-3-3γ after incubation with Flag-PAK6 S531N (4:1 molar ratio) under kinase assay conditions with or without 1 mM ATP; Coomassie staining.
Another test deals with LRRK2 (UniProt Q5S007). Kind of test: overlay of His-14-3-3γ on blotted Flag-LRRK2. The following applies: reference: 14-3-3γ wild type; sites S59.
For the next test, the target named is 14-3-3γ (UniProt P61981). Kind of test: overlay of His-14-3-3γ on blotted Flag-PAK6. Conditions: reference: PAK6 wild type; sites S113.

On to “6xHis-14-3-3γ wild-type (from UniProt P61981 1-247) (natural protein)”, for which, in test [1], the stoichiometry N came to 2. In the test with LRRK2, “14-3-3γ (from UniProt P61981) 14-3-3γ S59D” returned an other: percent reduction versus wild type of 80%.

As for PAK6 (from UniProt Q9NQU5) PAK6 S113A, the “binding against the reference” value in the test with 14-3-3γ is “weaker”.
